{"source": "the Human Domainome abundance scans (Beltran et al. 2025)", "parents": {"B1": {"name": "Triacylglycerol hydrolase DDHD2, residues 389 to 447; numbered along this chain, O94830 (parent)", "chain": "TLEEDLKKLQLSEFFDIFEKEKVDKEALALCTDRDLQEIGIPLGPRKKILNYFSTRKNS"}}, "note": "± gives the uncertainty stated by the source."}
{"variants_of": "B1", "test": "abundance fitness (aPCA) (normalised: wild type 0, dead -1); higher = more abundant; growth selection in yeast, the domain comes from the species named", "conditions": "Homo sapiens"}
{"variant": "TLEEDLKKLQLSEFFDIFEKEKVDKEALALCTDRDLQEIGIPLGPRKKILNYFSTRFNS", "note": "[K57F]", "abundance fitness": "-0.224 ± 0.14"}
{"variant": "TLEEDLKKLQLSEFFDIFEKEKVDKEACALCTDRDLQEIGIPLGPRKKILNYFSTRKNS", "note": "[L28C]", "abundance fitness": "-0.325 ± 0.1"}
{"variant": "TLEEDLKKLQSSEFFDIFEKEKVDKEALALCTDRDLQEIGIPLGPRKKILNYFSTRKNS", "note": "[L11S]", "abundance fitness": "-0.969 ± 0.072"}
{"variant": "TLEEDLKKLQFSEFFDIFEKEKVDKEALALCTDRDLQEIGIPLGPRKKILNYFSTRKNS", "note": "[L11F]", "abundance fitness": "-1.05 ± 0.17"}
{"variant": "TLEEDLKKLQRSEFFDIFEKEKVDKEALALCTDRDLQEIGIPLGPRKKILNYFSTRKNS", "note": "[L11R]", "abundance fitness": "-0.996 ± 0.068"}
{"variant": "TLEEDLKKLQCSEFFDIFEKEKVDKEALALCTDRDLQEIGIPLGPRKKILNYFSTRKNS", "note": "[L11C]", "abundance fitness": "-0.462 ± 0.088"}
{"variant": "TLEEDLKKLQLSEFFDIFEKEKVDKEALALCTDRDLQEIGHPLGPRKKILNYFSTRKNS", "note": "[I41H]", "abundance fitness": "-0.31 ± 0.14"}
{"variant": "TLEEDLKKLQLMEFFDIFEKEKVDKEALALCTDRDLQEIGIPLGPRKKILNYFSTRKNS", "note": "[S12M]", "abundance fitness": "-0.119 ± 0.072"}
{"variant": "TLEEDLKKLQLDEFFDIFEKEKVDKEALALCTDRDLQEIGIPLGPRKKILNYFSTRKNS", "note": "[S12D]", "abundance fitness": "0.037 ± 0.074"}
{"variant": "TLEEDLKKLQLGEFFDIFEKEKVDKEALALCTDRDLQEIGIPLGPRKKILNYFSTRKNS", "note": "[S12G]", "abundance fitness": "-0.099 ± 0.058"}
{"variant": "TLEEDLKKLQLVEFFDIFEKEKVDKEALALCTDRDLQEIGIPLGPRKKILNYFSTRKNS", "note": "[S12V]", "abundance fitness": "-0.099 ± 0.052"}
{"variant": "TLEEDLKKLQLSEFFDIFEKEKVYKEALALCTDRDLQEIGIPLGPRKKILNYFSTRKNS", "note": "[D24Y]", "abundance fitness": "-0.627 ± 0.2"}
{"variant": "TLEEDLKKLQLSEFFDIFEKEKVLKEALALCTDRDLQEIGIPLGPRKKILNYFSTRKNS", "note": "[D24L]", "abundance fitness": "-0.881 ± 0.13"}
{"variant": "TLEEDLKKLQLSEFFVIFEKEKVDKEALALCTDRDLQEIGIPLGPRKKILNYFSTRKNS", "note": "[D16V]", "abundance fitness": "-0.096 ± 0.05"}
{"variant": "TLEEDLKKLQLSEFFSIFEKEKVDKEALALCTDRDLQEIGIPLGPRKKILNYFSTRKNS", "note": "[D16S]", "abundance fitness": "-0.057 ± 0.056"}
{"variant": "TLEEDLKKLQLSEVFDIFEKEKVDKEALALCTDRDLQEIGIPLGPRKKILNYFSTRKNS", "note": "[F14V]", "abundance fitness": "-0.505 ± 0.082"}
{"variant": "TLEEDLKKLQLSEMFDIFEKEKVDKEALALCTDRDLQEIGIPLGPRKKILNYFSTRKNS", "note": "[F14M]", "abundance fitness": "-0.015 ± 0.085"}
{"variant": "TLEEDLKKLQLSEFFDIFEKEKVDKEALALCTDRDKQEIGIPLGPRKKILNYFSTRKNS", "note": "[L36K]", "abundance fitness": "-0.06 ± 0.086"}
{"variant": "TLEEDLKKLQLSEFFDIFEKEKVDKEALALCTDRDYQEIGIPLGPRKKILNYFSTRKNS", "note": "[L36Y]", "abundance fitness": "-0.765 ± 0.14"}
{"variant": "TLEEDLKKLQLSEFFDIFEKEKVDKEALALCTDRDLQEIGIPLGPRKKILNYFSTRKNN", "note": "[S59N]", "abundance fitness": "-0.569 ± 0.26"}
{"variant": "TLEEDLKKLQLSEFFDIFEKEKVDKEALALCTDRDLQEIGIPLGPRKKILNYFSTRKNL", "note": "[S59L]", "abundance fitness": "-0.473 ± 0.14"}
{"variant": "TLEEDLKKLQLSEFFDIFEKEKVDKEALALCTDRDLQEIGIPLGPRKKILNYFSTRKNH", "note": "[S59H]", "abundance fitness": "-0.056 ± 0.17"}
{"variant": "TLEEDLKKLQLSEFFDIFEKEKVDKEALALCTDRDLQEILIPLGPRKKILNYFSTRKNS", "note": "[G40L]", "abundance fitness": "-1.01 ± 0.098"}
{"variant": "TLEEDLKKLQLSEFFDIFEKEKVDKEALALCTDRDLQEIAIPLGPRKKILNYFSTRKNS", "note": "[G40A]", "abundance fitness": "-0.65 ± 0.085"}
{"variant": "TLEEDLKKLQLSEFFDIFEKEKVDKEALALCTDRDLQEIKIPLGPRKKILNYFSTRKNS", "note": "[G40K]", "abundance fitness": "-0.651 ± 0.16"}
{"variant": "TLEEDLKKLQLSEFFDIFEKEKVDKEALALCTDRDLIEIGIPLGPRKKILNYFSTRKNS", "note": "[Q37I]", "abundance fitness": "0.086 ± 0.1"}
{"variant": "TLEEDLKKLQLSEFFDIFEKEKVDKEALALCTDRDLPEIGIPLGPRKKILNYFSTRKNS", "note": "[Q37P]", "abundance fitness": "-0.996 ± 0.16"}
{"variant": "TLEEDLKKLQLSEFFDIFEKEKVDKEALALCTDRDLQEIGIPLGPWKKILNYFSTRKNS", "note": "[R46W]", "abundance fitness": "-1.27 ± 0.17"}
{"variant": "TLEEDCKKLQLSEFFDIFEKEKVDKEALALCTDRDLQEIGIPLGPRKKILNYFSTRKNS", "note": "[L6C]", "abundance fitness": "-0.888 ± 0.27"}
{"variant": "TLEEDLKKLQLSEFFDIFGKEKVDKEALALCTDRDLQEIGIPLGPRKKILNYFSTRKNS", "note": "[E19G]", "abundance fitness": "-0.359 ± 0.072"}
{"variant": "TLWEDLKKLQLSEFFDIFEKEKVDKEALALCTDRDLQEIGIPLGPRKKILNYFSTRKNS", "note": "[E3W]", "abundance fitness": "-0.16 ± 0.059"}
{"variant": "TLHEDLKKLQLSEFFDIFEKEKVDKEALALCTDRDLQEIGIPLGPRKKILNYFSTRKNS", "note": "[E3H]", "abundance fitness": "-0.358 ± 0.11"}
{"variant": "TLAEDLKKLQLSEFFDIFEKEKVDKEALALCTDRDLQEIGIPLGPRKKILNYFSTRKNS", "note": "[E3A]", "abundance fitness": "-0.142 ± 0.063"}
{"variant": "TLKEDLKKLQLSEFFDIFEKEKVDKEALALCTDRDLQEIGIPLGPRKKILNYFSTRKNS", "note": "[E3K]", "abundance fitness": "0.101 ± 0.081"}
{"variant": "TLEEGLKKLQLSEFFDIFEKEKVDKEALALCTDRDLQEIGIPLGPRKKILNYFSTRKNS", "note": "[D5G]", "abundance fitness": "-0.536 ± 0.06"}
{"variant": "TLEERLKKLQLSEFFDIFEKEKVDKEALALCTDRDLQEIGIPLGPRKKILNYFSTRKNS", "note": "[D5R]", "abundance fitness": "-0.568 ± 0.061"}
{"variant": "TLEEPLKKLQLSEFFDIFEKEKVDKEALALCTDRDLQEIGIPLGPRKKILNYFSTRKNS", "note": "[D5P]", "abundance fitness": "-0.904 ± 0.092"}
{"variant": "TLEEDLKKLQLSEFFDIFEKEKVDKEALALCTDRDLQEIGIPLGPRKKILNYFSIRKNS", "note": "[T55I]", "abundance fitness": "0.122 ± 0.11"}
{"variant": "TLEEDLKKLQLSEFFDIFEKEKVDKEALALCTDRDLQEIGIPLGPRKKILNYFSSRKNS", "note": "[T55S]", "abundance fitness": "-0.007 ± 0.067"}
{"variant": "TLEEDLKKLQLSEFFDIFEKEKVDKEALALCMDRDLQEIGIPLGPRKKILNYFSTRKNS", "note": "[T32M]", "abundance fitness": "-0.299 ± 0.1"}
{"variant": "TLEEDLKKLQLSEFFDIFEKEKVDKEALALCFDRDLQEIGIPLGPRKKILNYFSTRKNS", "note": "[T32F]", "abundance fitness": "-1.18 ± 0.2"}
{"variant": "TLEEDLKKLQLSEFFDIFEKEKVDKEALALCLDRDLQEIGIPLGPRKKILNYFSTRKNS", "note": "[T32L]", "abundance fitness": "-0.907 ± 0.1"}
{"variant": "TLEEDLKKLQLSLFFDIFEKEKVDKEALALCTDRDLQEIGIPLGPRKKILNYFSTRKNS", "note": "[E13L]", "abundance fitness": "-0.608 ± 0.11"}
{"variant": "TLEEDLKKLQLSPFFDIFEKEKVDKEALALCTDRDLQEIGIPLGPRKKILNYFSTRKNS", "note": "[E13P]", "abundance fitness": "-0.432 ± 0.16"}
{"variant": "TLEEDLKKLQLSGFFDIFEKEKVDKEALALCTDRDLQEIGIPLGPRKKILNYFSTRKNS", "note": "[E13G]", "abundance fitness": "-0.576 ± 0.1"}
